Drawing on patent US20260234222A1, this text covers Pseudovirion neutralization IC50 for 1 molecule.

This test deals with SARS-CoV-2 BQ.1 Spike antigen (SARS-CoV-2 Omicron BQ.1). The test can be described thus: cell-based or functional assay.

B1: Parental mAb 2 (antibody, V domains shown)
VH: QMQLMQSGAEVKKPGASVTVSCKASGDTFSDYRIHWVRQAPGQGLEWMGRMNPKSGDTNFAQKFQGRVTMTRDMSINTAYMTLSGLTFDDTALYYCASLLIVGGFDPLDDFEVWGQGTMVTISS
VL: QSALTQPPSASGSPGQSVTISCSGTSSDVGGYNFVSWYQHHPGKAPKILIYEVTKRPSGVPDRFSGSKSGNTASLTVSGLQAEDEADYYCSSYGGTNNLLFGGGTKLTVL
B1 returned a Pseudovirion neutralization IC50 of 10.1 µg/mL.
